{
  "source": "patent US9289468B2",
  "about": "“Fusion protein comprising circularly permuted form of trail/Apo2L, coding gene and use thereof” (Beijing Sunbio Biotech Co. Ltd., priority 2011, dated 2016)",
  "key": {"[1]": {"test_system": "human COLO 205 xenograft tumor", "test": "Inhibitory activity on human colon cancer xenograft tumors", "assay_type": "in vivo, Balb/c nu mice", "procedure": "4 to 5 weeks old Balb/c nu mice ♂ (Institute of Experimental Animals, Chinese Academy of Medical Sciences) were subcutaneously inoculated with COLO 205 human colon tumor tissue pieces. When the tumor grew to the volume of 120 mm3, the tumor-bearing mice were divided into 4 groups (n=7/group), which were intraperitoneally injected with normal saline (negative control group), NCPT-1.M1 5 mg/kg, NCPT-1.M1 15 mg/kg and wtTRAIL 15 mg/kg once a day for 10 consecutive days. […] During the experiment, the tumor length diameter (a) and wide diameter (b) were measured every two days with a vernier caliper, and tumor volume (TV) was calculated according to the following formula: TV=½×a×b^2; From the above, the relative tumor volume (RTV) was calculated according to following formula: RTV=Vt/V0. Wherein V0 is the tumor volume measured on the day of the administration, but before administration (i.e., d0), and Vt is the tumor volume measured every time. The relative tumor proliferation rate T/C (%) is used as an evaluation index. Evaluation criteria: T/C (%)>40% means no effect; T/C (%)≦40% and the statistical significance of P<0.05 means being effective.\nT/C %=RTVT/RTVC*100%. (RTVT: RTV of the treatment group; […]: RTV of the negative control group)."}, "NCI-H460 cells": {"test_system": "NCI-H460 cells", "test": "Assay of killing activity on lung cancer cell line (crystal violet, IC50)", "assay_type": "cell-based, human", "conditions": "for Ratio of IC50 of mutants to IC50 of CPT (H460 cells): 20-24 hours, crystal violet; for killing activity compared to that of CPT: based on IC50", "procedure": "The NCI-H460 cells (ATCC) were cultured in flasks until logarithmic growth phase, digested with 0.25% trypsin (Amresco), collected by centrifugation (1000 rpm, 5 min), resuspended in RPMI1640 medium (Invitrogen) containing 3% fetal bovine serum (FBS), counted and adjusted to 1.5×10^5/ml cell suspension, added into 96-well culture plates (Nunc) at 100 μl/well, and incubated at 37° C. in 5% CO2 incubator overnight. The sample to be tested was diluted to a certain concentration with 1640 medium containing 3% FBS, and further diluted at 4-fold dilutions (8 dilutions). The supernatant in the culture plate was discarded, and serial dilutions of the sample to be tested was added into the plate at 100 μl/well with a negative control and blank control set aside, incubated at 37° C. under 5% CO2 for 20-24 hours. Following examination under microscope, the supernatant was discarded, each well was added 50 μl 0.05% crystal violet solution (50 mg crystal violet was dissolved in 20 ml anhydrous ethanol, and water was added to the volume of 100 ml, then stored at room temperature) and stained for 3-5 minutes. The crystal violet was carefully washed with flowing water, the remaining water was removed by spin-drying, a destaining solution (50 ml distilled water, 50 ml anhydrous ethanol, and 0.1 ml glacial acetic acid were thoroughly mixed and stored at room temperature) was added at 100 μl/well, then the reading at OD570 was measured on a microplate reader (Bio-Rad 680) (reference wavelength of 630 nm). The inhibitory concentration 50 (IC50) of each sample was calculated by a four-parameter Logistic fitting using Sigmaplot10.0 software. The IC50 for CPT and each mutant of NCPT-1, NCPT-2, and NCPT-3 were calculated, and the activity change of each mutant was represented as a ratio of the IC50 of each mutant to that of CPT (Table 1)."}, "[2]": {"conditions": "15 mg/kg i.p. once a day for 10 days"}},
  "data": [
    {"molecule": "wtTRAIL: wild-type TRAIL (protein, UniProt P50591 1-281, looked up) Tumor necrosis factor ligand …: MAMMEVQGGPSLGQTCVLIVIFTVLLQSLCVAVTYVYFTNELKQMQDKYSKSGIACFLKEDDSYWDPNDEESMNSPCWQVKWQLRQLVRKMILRTSEETISTVQEKQQNISPLVRERGPQRVAAHITGTRGRSNTLSSPNSKNEKALGRKINSWESSRSGHSFLSNLHLRNGELVIHEKGFYYIYSQTYFRFQEEIKENTKNDKQMVQYIYKYTSYPDPILLMKSARNSCWSKDAEYGLYSIYQGGIFELKENDRIFVSVTNEHLIDMDHEASFFGAFLVG", "values": [
      {"measurement": "relative tumor volume RTV", "setting": "[1]; [2]", "value": 1.58},
      {"measurement": "tumor proliferation rate T/C(%)", "setting": "[1]; [2]", "value": 33.98, "unit": "%"},
      {"measurement": "Tumor volume TV beginning", "setting": "[1]; 15 mg/kg i.p. once a day for 10 days, beginning", "value": "127 ± 38.3", "unit": "mm^3"},
      {"measurement": "Tumor volume TV ending", "setting": "[1]; 15 mg/kg i.p. once a day for 10 days, ending", "value": 212, "unit": "mm^3"},
      {"measurement": "efficacy compared with NCPT-1.M1", "setting": "[1]; 15 mg/kg, COLO 205 xenograft, P<0.05", "value": "significantly weaker than that of NCPT-1.M1 with the same dosage"},
      {"measurement": "evaluation of efficacy (T/C ≦40% and P<0.05 means being effective)", "setting": "[1]; both dosage groups of NCPT-1.M1 (5, 15 mg/kg), wtTRAIL 15 mg/kg", "value": "effective"}
    ]},
    {"molecule": "NCPT-1.M7: MG+His9+NCPT-1, SEQ ID NO: 11 (protein, NCPT-1.M7 polypeptide sequence) MGHHHHHHHHHTLSSPNSKNEKALGRKINSWESSRSGHSFLSNLHLRNGELVIHEKGFYYIYSQTYFRFQEEIKENTKNDKQMVQYIYKYTSYPDPILLMKSARNSCWSKDAEYGLYSIYQGGIFELKENDRIFVSVTNEHLIDMDHEASFFGAFLVGGGGGGRVAAHITGTRGRSNT", "values": [
      {"measurement": "Ratio of IC50 of mutants to IC50 of CPT (H460 cells)", "setting": "NCI-H460 cells", "value": 0.3},
      {"measurement": "killing activity compared to that of CPT", "setting": "NCI-H460 cells", "value": "significantly higher than that of CPT"}
    ]},
    {"molecule": "NCPT-1.M8: MG+129-134+NCPT-1, SEQ ID NO: 12 (protein, NCPT-1.M8 polypeptide sequence) MGTRGRSNTLSSPNSKNEKALGRKINSWESSRSGHSFLSNLHLRNGELVIHEKGFYYIYSQTYFRFQEEIKENTKNDKQMVQYIYKYTSYPDPILLMKSARNSCWSKDAEYGLYSIYQGGIFELKENDRIFVSVTNEHLIDMDHEASFFGAFLVGGGGGGRVAAHITGTRGRSNT", "values": [
      {"measurement": "Ratio of IC50 of mutants to IC50 of CPT (H460 cells)", "setting": "NCI-H460 cells", "value": 1.5},
      {"measurement": "killing activity compared to that of CPT", "setting": "NCI-H460 cells", "value": "significantly decreased compared to that of CPT"}
    ]},
    {"molecule": "NCPT-1.M9: MG+Asn6+NCPT-1, SEQ ID NO: 13 (protein, NCPT-1.M9 polypeptide sequence) MGNNNNNNTLSSPNSKNEKALGRKINSWESSRSGHSFLSNLHLRNGELVIHEKGFYYIYSQTYFRFQEEIKENTKNDKQMVQYIYKYTSYPDPILLMKSARNSCWSKDAEYGLYSIYQGGIFELKENDRIFVSVTNEHLIDMDHEASFFGAFLVGGGGGGRVAAHITGTRGRSNT", "values": [
      {"measurement": "Ratio of IC50 of mutants to IC50 of CPT (H460 cells)", "setting": "NCI-H460 cells", "value": 3.0},
      {"measurement": "killing activity compared to that of CPT", "setting": "NCI-H460 cells", "value": "significantly decreased compared to that of CPT"}
    ]},
    {"molecule": "NCPT-1.M5: MG+His6+NCPT-1 with linker GSGGG, SEQ ID NO: 9 (protein, NCPT-1.M5 polypeptide sequence) MGHHHHHHTLSSPNSKNEKALGRKINSWESSRSGHSFLSNLHLRNGELVIHEKGFYYIYSQTYFRFQEEIKENTKNDKQMVQYIYKYTSYPDPILLMKSARNSCWSKDAEYGLYSIYQGGIFELKENDRIFVSVTNEHLIDMDHEASFFGAFLVGGSGGGRVAAHITGTRGRSNT", "values": [
      {"measurement": "Ratio of IC50 of mutants to IC50 of CPT (H460 cells)", "setting": "NCI-H460 cells", "value": 0.15},
      {"measurement": "killing activity compared to that of CPT", "setting": "NCI-H460 cells", "value": "significantly higher than that of CPT"}
    ]},
    {"molecule": "NCPT-1.M4: His6+NCPT-1, SEQ ID NO: 8 (protein, NCPT-1.M4 polypeptide sequence) HHHHHHTLSSPNSKNEKALGRKINSWESSRSGHSFLSNLHLRNGELVIHEKGFYYIYSQTYFRFQEEIKENTKNDKQMVQYIYKYTSYPDPILLMKSARNSCWSKDAEYGLYSIYQGGIFELKENDRIFVSVTNEHLIDMDHEASFFGAFLVGGGGGGRVAAHITGTRGRSNT", "values": [
      {"measurement": "Ratio of IC50 of mutants to IC50 of CPT (H460 cells)", "setting": "NCI-H460 cells", "value": 0.12},
      {"measurement": "killing activity compared to that of CPT", "setting": "NCI-H460 cells", "value": "significantly higher than that of CPT"}
    ]},
    {"molecule": "NCPT-1.M10: MG+NCPT-1+aa136-141, SEQ ID NO: 14 (protein, NCPT-1.M10 polypeptide sequence) MGTLSSPNSKNEKALGRKINSWESSRSGHSFLSNLHLRNGELVIHEKGFYYIYSQTYFRFQEEIKENTKNDKQMVQYIYKYTSYPDPILLMKSARNSCWSKDAEYGLYSIYQGGIFELKENDRIFVSVTNEHLIDMDHEASFFGAFLVGGGGGGRVAAHITGTRGRSNTLSSPNS", "values": [
      {"measurement": "Ratio of IC50 of mutants to IC50 of CPT (H460 cells)", "setting": "NCI-H460 cells", "value": 1.2},
      {"measurement": "killing activity compared to that of CPT", "setting": "NCI-H460 cells", "value": "slightly decreased compared to that of CPT"}
    ]},
    {"molecule": "NCPT-1.M2: MG+NCPT-1+His6, SEQ ID NO: 6 (protein, NCPT-1.M2 polypeptide sequence) MGTLSSPNSKNEKALGRKINSWESSRSGHSFLSNLHLRNGELVIHEKGFYYIYSQTYFRFQEEIKENTKNDKQMVQYIYKYTSYPDPILLMKSARNSCWSKDAEYGLYSIYQGGIFELKENDRIFVSVTNEHLIDMDHEASFFGAFLVGGGGGGRVAAHITGTRGRSNTHHHHHH", "values": [
      {"measurement": "Ratio of IC50 of mutants to IC50 of CPT (H460 cells)", "setting": "NCI-H460 cells", "value": 0.1},
      {"measurement": "killing activity compared to that of CPT", "setting": "NCI-H460 cells", "value": "significantly higher than that of CPT"}
    ]},
    {"molecule": "NCPT-3.M12: MG+His6+NCPT-3, SEQ ID NO: 16 (protein, NCPT-3.M12 polypeptide sequence) MGHHHHHHTLSSPNSKNEKALGRKINSWESSRSGHSFLSNLHLRNGELVIHEKGFYYIYSQTYFRFQEEIKENTKNDKQMVQYIYKYTSYPDPILLMKSARNSCWSKDAEYGLYSIYQGGIFELKENDRIFVSVTNEHLIDMDHEASFFGAFLVGGGGGGVRERGPQRVAAHITGTRGRSNT", "values": [
      {"measurement": "Ratio of IC50 of mutants to IC50 of CPT (H460 cells)", "setting": "NCI-H460 cells", "value": 0.38},
      {"measurement": "killing activity compared to that of CPT", "setting": "NCI-H460 cells", "value": "significantly higher than that of CPT"}
    ]},
    {"molecule": "NCPT-1.M3: MG+His3+NCPT-1, SEQ ID NO: 7 (protein, NCPT-1.M3 polypeptide sequence) MGHHHTLSSPNSKNEKALGRKINSWESSRSGHSFLSNLHLRNGELVIHEKGFYYIYSQTYFRFQEEIKENTKNDKQMVQYIYKYTSYPDPILLMKSARNSCWSKDAEYGLYSIYQGGIFELKENDRIFVSVTNEHLIDMDHEASFFGAFLVGGGGGGRVAAHITGTRGRSNT", "values": [
      {"measurement": "Ratio of IC50 of mutants to IC50 of CPT (H460 cells)", "setting": "NCI-H460 cells", "value": 0.4},
      {"measurement": "killing activity compared to that of CPT", "setting": "NCI-H460 cells", "value": "significantly higher than that of CPT"}
    ]},
    {"molecule": "NCPT-1.M6: MG+His6+NCPT-1 with linker GGSGGGG, SEQ ID NO: 10 (protein, NCPT-1.M6 polypeptide sequence) MGHHHHHHTLSSPNSKNEKALGRKINSWESSRSGHSFLSNLHLRNGELVIHEKGFYYIYSQTYFRFQEEIKENTKNDKQMVQYIYKYTSYPDPILLMKSARNSCWSKDAEYGLYSIYQGGIFELKENDRIFVSVTNEHLIDMDHEASFFGAFLVGGGSGGGGRVAAHITGTRGRSNT", "values": [
      {"measurement": "Ratio of IC50 of mutants to IC50 of CPT (H460 cells)", "setting": "NCI-H460 cells", "value": 0.15},
      {"measurement": "killing activity compared to that of CPT", "setting": "NCI-H460 cells", "value": "significantly higher than that of CPT"}
    ]},
    {"molecule": "NCPT-2.M11: MG+His6+NCPT-2, SEQ ID NO: 15 (protein, NCPT-2.M11 polypeptide sequence) MGHHHHHHTLSSPNSKNEKALGRKINSWESSRSGHSFLSNLHLRNGELVIHEKGFYYIYSQTYFRFQEEIKENTKNDKQMVQYIYKYTSYPDPILLMKSARNSCWSKDAEYGLYSIYQGGIFELKENDRIFVSVTNEHLIDMDHEASFFGAFLVGGGGGGTSEETISTVQEKQQNISPLVRERGPQRVAAHITGTRGRSNT", "values": [
      {"measurement": "Ratio of IC50 of mutants to IC50 of CPT (H460 cells)", "setting": "NCI-H460 cells", "value": 0.47},
      {"measurement": "killing activity compared to that of CPT", "setting": "NCI-H460 cells", "value": "significantly higher than that of CPT"}
    ]}
  ]
}
